Source: US20230400471A1, “SYSTEMS, COMPOSITIONS AND METHODS OF DETERMINING VIABILITY OF EMBRYOS USING THE SAME” (BioIncept, LLC, priority 2020, published 2023)
“And” between values parts separate entries of the source, which are not always exact repeats. Equal entries are not always repeated. Where two headings read alike, the source gives them in different places. One block for each molecule: values may come before it. Ends that are not written are not given here.

Tests used:
[1] = system: rabbit anti-PIF monoclonal antibody; assay: PIF colorimetric ELISA using rabbit anti-PIF monoclonal antibody, epitope mapping with PIF peptides of various length; type: binding; conditions: representative value of three repeats
Procedure: (§1) To study PIF peptide and its derivatives of different length for binding to rabbit anti-PIF monoclonal antibody and rabbit anti-PIF polyclonal antibody, PIF peptides of various lengths as listed in Table 2 was synthesized, reconstituted in PBS and two different concentrations were tested by respective colorimetric ELISA following standard protocol. The standards were run in duplicate and the samples were run in triplicate and repeated three times.

[2] = system: rabbit anti-PIF polyclonal antibody; assay: PIF colorimetric ELISA using rabbit polyclonal antibody, epitope mapping with PIF peptides of various length; type: binding; conditions: representative value of three repeats
Procedure: as §1

[3] = target: T1, preimplantation factor (PIF), full-length 15-amino acid peptide (human); assay: SPR, Clone #30 captured on sheep anti-rabbit CM5 chip, PIF as analyte, global 1:1 fit
[4] = target: T1, preimplantation factor (PIF), …; assay: SPR: Clone #30 captured (about 2000 RU) on sheep anti-rabbit antibody amine-coupled to a CM5 chip; PIF as analyte in a 2-fold series up to 10 µM; global 1:1 fit
[5] = target: T1, preimplantation factor (PIF), …; assay: as above; remark: listed apart in the source
[6] = target: T2, rabbit monoclonal anti-PIF antibody Clone #30; assay: competitive ELISA; Clone #30 via goat anti-rabbit; competitor biotin-PIF tracer
T2 chain 1: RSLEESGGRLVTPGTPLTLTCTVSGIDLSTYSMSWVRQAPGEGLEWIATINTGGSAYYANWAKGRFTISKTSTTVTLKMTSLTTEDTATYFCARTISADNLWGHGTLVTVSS
T2 chain 2: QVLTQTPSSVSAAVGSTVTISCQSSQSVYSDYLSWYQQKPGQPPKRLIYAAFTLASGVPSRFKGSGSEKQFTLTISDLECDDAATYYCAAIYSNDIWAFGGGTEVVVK

[7] = target: T2, rabbit monoclonal anti-PIF antibody …; assay: as above
[8] = target: T2, rabbit monoclonal anti-PIF antibody …; assay: competitive microarray immunoassay; Clone #30 on goat anti-rabbit spots; competitor A647-sPIF tracer
[9] = target: T2, rabbit monoclonal anti-PIF antibody …; assay: ELISA; Clone #30 via goat anti-rabbit; biotin-PIF tracer without unlabeled PIF
PIF = assay: Surface plasmon resonance (SPR), captured Clone #30 with PIF as analyte; type: binding, human; conditions: PIF 2-fold concentration series up to 10 μM, duplicate
Source text: (§2) The PIF-binding specificity of the rabbit monoclonal antibody Clone #30 described in Example 1 was quantitatively characterized by surface plasmon resonance (SPR). SPR is an optical technique for detecting the interaction of two different molecules in which one is mobile and one is fixed on a thin gold film. In SPR analysis, affinity-purified ligand polypeptides are immobilized on a sensor chip inserted into the flow chamber of an instrument, such as Biacore 3000 instrument (Biacore, Uppsala, Sweden). Addition of a second polypeptide, the flow-through analyte, to the chamber, results in binding to the immobilized polypeptide ligand, producing a small change in refractive index at the gold surface, which can be quantified with precision. Binding affinities can be obtained from the ratio of rate constants, yielding a straightforward characterization of protein-protein interaction.
(§3) In the work described here, purified rabbit monoclonal antibody Clone #30 was used as the ligand polypeptide and PIF in solution was used as the analyte to evaluate their binding affinity. To immobilize rabbit monoclonal antibody Clone #30 onto a chip, a sheep polyclonal anti-rabbit antibody was used. The sheep anti-rabbit antibody was amine coupled to a CM5 sensor chip using standard NHS/EDC activation. […]

scrambled PIF (SCR) = assay: Surface plasmon resonance (SPR), captured Clone #30 with scrambled PIF as analyte; type: binding; conditions: SCR 2-fold concentration series up to 10 μM, duplicate
Source text: as §2, §3

Molecule: P8-13: PIF peptide, amino acid locations 8-13 (S A N K P S) (SANKPS) [Clone P8-13]
- % Recovery by Rabbit Monoclonal Antibody ([1]; spike concentration 100 ng/ml): 0%
- % Recovery by Rabbit Monoclonal Antibody ([1]; spike concentration 200 ng/ml): 0%
- % recovery by Rabbit Polyclonal Antibody ([2]; spike concentration 100 ng/ml): 0%
- % recovery by Rabbit Polyclonal Antibody ([2]; spike concentration 200 ng/ml): 0%

Molecule: P1-7: PIF peptide, amino acid locations 1-7 (M V R I K P G) (MVRIKPG) [Clone P1-7]
- % Recovery by Rabbit Monoclonal Antibody ([1]; spike concentration 100 ng/ml): 0%
- % Recovery by Rabbit Monoclonal Antibody ([1]; spike concentration 200 ng/ml): 0%
- % recovery by Rabbit Polyclonal Antibody ([2]; spike concentration 100 ng/ml): 0%
- % recovery by Rabbit Polyclonal Antibody ([2]; spike concentration 200 ng/ml): 0%

B2: Clone #30: Rabbit monoclonal antibody against human PIF peptide; heavy chain SEQ ID NO: 2, light chain SEQ ID NO: 7 (antibody, listed as Homo sapiens)
heavy: METGLRWLLLVAVLKGVQCRSLEESGGRLVTPGTPLTLTCTVSGIDLSTYSMSWVRQAPGEGLEWIATINTGGSAYYANWAKGRFTISKTSTTVTLKMTSLTTEDTATYFCARTISADNLWGHGTLVTVSSGQPKAPSVFPLAPCCGDTPSSTVTLGCLVKGYLPEPVTVTWNSGTLTNGVRTFPSVRQSSGLYSLSSVVSVTSSSQPVTCNVAHPATNTKVDKTVAPSTCSKPTCPPPELLGGPSVFIFPPKPKDTLMISRTPEVTCVVVDVSQ
light: MDTRAPTQLLGLLLLWLPGATFAQVLTQTPSSVSAAVGSTVTISCQSSQSVYSDYLSWYQQKPGQPPKRLIYAAFTLASGVPSRFKGSGSEKQFTLTISDLECDDAATYYCAAIYSNDIWAFGGGTEVVVKGDPVAPTVLIFPPSADQVATGTVTIVCVANKYFPDVTVTWEVDGTTQTTGIENSKTPQNSADCTYNLSSTLTLTSTQYNSHKEYTCKVTQGTTSVVQSFNRGDC
- binding of PIF to Clone #30 by SPR (PIF): significant and concentration dependent binding response
- Kd (PIF; SPR, 1:1 interaction model): ~15 nM
- binding of scrambled PIF (SCR) to Clone #30 by SPR (scrambled PIF (SCR)): no binding was observed

More lines, now with the values ahead:

- Kd [3]: 15 nM
- Kd [4]: 10.7 nM
- Kd [5]: 17.5 nM
B1: rabbit monoclonal anti-PIF antibody Clone #30 (antibody, V domains shown)
VH: T2 chain 1
VL: T2 chain 2

- % Bound at 1 pg/mL [6]: 93.7%
- % Bound at 5 pg/mL [6]: 92.8%
- % Bound at 10 pg/mL [6]: 91.7%
- % Bound at 25 pg/mL [6]: 90%
- % Bound at 50 pg/mL [6]: 87%
- % Bound at 100 pg/mL [6]: 89.9%
- % Bound at 250 pg/mL [6]: 77.3%
- % Bound at 500 pg/mL [6]: 61.1%
- % Bound at 1000 pg/mL [6]: 49.8%
- % Bound at 2000 pg/mL [6]: 27%
- AvgNetRLU at 1 pg/mL [6]: 2.23e+07 RLU
- AvgNetRLU at 5 pg/mL [6]: 2.21e+07 RLU
- AvgNetRLU at 10 pg/mL [6]: 2.18e+07 RLU
- AvgNetRLU at 25 pg/mL [6]: 2.14e+07 RLU
- AvgNetRLU at 50 pg/mL [6]: 2.07e+07 RLU
- AvgNetRLU at 100 pg/mL [6]: 2.14e+07 RLU
- AvgNetRLU at 250 pg/mL [6]: 1.84e+07 RLU
- AvgNetRLU at 500 pg/mL [6]: 1.45e+07 RLU
- AvgNetRLU at 1000 pg/mL [6]: 1.18e+07 RLU
- AvgNetRLU at 2000 pg/mL [6]: 6.41e+06 RLU
- MeanValue (RLU) at 1 pg/mL [6]: 2.75e+07 RLU
- MeanValue (RLU) at 5 pg/mL [6]: 2.73e+07 RLU
- MeanValue (RLU) at 10 pg/mL [6]: 2.7e+07 RLU
- MeanValue (RLU) at 25 pg/mL [6]: 2.66e+07 RLU
- MeanValue (RLU) at 50 pg/mL [6]: 2.59e+07 RLU
- MeanValue (RLU) at 100 pg/mL [6]: 2.66e+07 RLU
- MeanValue (RLU) at 250 pg/mL [6]: 2.36e+07 RLU
- MeanValue (RLU) at 500 pg/mL [6]: 1.97e+07 RLU
- MeanValue (RLU) at 1000 pg/mL [6]: 1.7e+07 RLU
- MeanValue (RLU) at 2000 pg/mL [6]: 1.16e+07 RLU
- Values (RLU) at 1 pg/mL [6]: 2.77e+07 RLU and 2.73e+07 RLU
- Values (RLU) at 5 pg/mL [6]: 2.75e+07 RLU and 2.7e+07 RLU
- Values (RLU) at 10 pg/mL [6]: 2.72e+07 RLU and 2.68e+07 RLU
- Values (RLU) at 25 pg/mL [6]: 2.66e+07 RLU
- Values (RLU) at 50 pg/mL [6]: 2.64e+07 RLU and 2.53e+07 RLU
- Values (RLU) at 100 pg/mL [6]: 2.69e+07 RLU and 2.62e+07 RLU
- Values (RLU) at 250 pg/mL [6]: 2.37e+07 RLU and 2.34e+07 RLU
- Values (RLU) at 500 pg/mL [6]: 2.03e+07 RLU and 1.91e+07 RLU
- Values (RLU) at 1000 pg/mL [6]: 1.75e+07 RLU and 1.66e+07 RLU
- Values (RLU) at 2000 pg/mL [6]: 1.19e+07 RLU and 1.14e+07 RLU
- % Bound at 1 pg/mL [7]: 96.6%
- % Bound at 10 pg/mL [7]: 93.6%
- % Bound at 25 pg/mL [7]: 91.1%
- % Bound at 250 pg/mL [7]: 81.4%
- % Bound at 500 pg/mL [7]: 69.9%
- AvgNetRLU at 1 pg/mL [7]: 2.3e+07 RLU
- AvgNetRLU at 10 pg/mL [7]: 2.23e+07 RLU
- AvgNetRLU at 25 pg/mL [7]: 2.16e+07 RLU
- AvgNetRLU at 250 pg/mL [7]: 1.93e+07 RLU
- AvgNetRLU at 500 pg/mL [7]: 1.66e+07 RLU
- MeanValues (RLU) at 1 pg/mL [7]: 2.82e+07 RLU
- MeanValues (RLU) at 10 pg/mL [7]: 2.74e+07 RLU
- MeanValues (RLU) at 25 pg/mL [7]: 2.68e+07 RLU
- MeanValues (RLU) at 250 pg/mL [7]: 2.45e+07 RLU
- MeanValues (RLU) at 500 pg/mL [7]: 2.18e+07 RLU
- Values (RLU) at 1 pg/mL [7]: 2.86e+07 RLU and 2.77e+07 RLU
- Values (RLU) at 10 pg/mL [7]: 2.79e+07 RLU and 2.7e+07 RLU
- Values (RLU) at 25 pg/mL [7]: 2.72e+07 RLU and 2.65e+07 RLU
- Values (RLU) at 250 pg/mL [7]: 2.48e+07 RLU and 2.43e+07 RLU
- Values (RLU) at 500 pg/mL [7]: 2.23e+07 RLU and 2.13e+07 RLU
- % B/B0 at 15.625 pg/mL [8]: 122%
- % B/B0 at 31.25 pg/mL [8]: 69%
- % B/B0 at 62.5 pg/mL [8]: 38%
- % B/B0 at 125 pg/mL [8]: 43%
- % B/B0 at 250 pg/mL [8]: 19%
- Average Mean RFU of bound tracer at 15.625 pg/mL [8]: 10900 RFU
- Average Mean RFU of bound tracer at 31.25 pg/mL [8]: 6170 RFU
- Average Mean RFU of bound tracer at 62.5 pg/mL [8]: 3350 RFU
- Average Mean RFU of bound tracer at 125 pg/mL [8]: 3850 RFU
- Average Mean RFU of bound tracer at 250 pg/mL [8]: 1690 RFU
- Average Mean RFU of bound tracer at 500 pg/mL [8]: 285 RFU
Molecule: MVRIKPGSANKPSDD (modifications not checked) [preimplantation factor (PIF), full-length 15-amino acid peptide]

- % Bound, tracer alone (0 pg/mL PIF) [9]: 96%
- AvgNetRLU, tracer alone (0 pg/mL PIF) [9]: 2.28e+07 RLU
- MeanValue (RLU), tracer alone (0 pg/mL PIF) [9]: 2.8e+07 RLU
- Values (RLU), tracer alone (0 pg/mL PIF) [9]: 2.86e+07 RLU and 2.74e+07 RLU
Molecule: MVRIKPGSANKPSDD (not fully specified) [biotin labeled PIF]
